First the molecules themselves.
B1: Beihai Conger Picornavirus (nucleic acid)
DNA: GGGACAACCCCACAGCTGGTACAACCATTGTGGGTTGGTCTCCACCCTTTTTCAACCGTGGCAACTTCGGTTAAAGTTGCAAATCCCCCCTCTCCCTATTCCACCTCCCTTACTTTCACTCCCCATATATGGTCCCAGATTTTATTCTACCTCTTTATATTTTTATTTAGTACAGTGGTGGTGAATTACTCCCAGCATAAACTTTGCTGGATCAGTGTTCATCAAGCATACTAATTACTAATGTACTGAGCTATACTATTATCTGGCATCTCACCTGGATAACCGGTGTGACCATATTTCCTAGGTTGCCTCCCTATGTATTTTGTAGCACCTGTGCATCTGCACGTTGGGGCGACAAATTGTAGGTTTCCTGGCACGGGTAAGAATTGTGGAAAGCTAGTATGCAGTTAATGCAAGGGCGCGTTTTTCGCTACCCCGACACTGCTAAAGTTTTTGGGAGGGGTCCCTTAAACATTTCTAGTATTGAGTGATAGCTTTGCGGCAGGTCACCACAACCTTACTATAAATAAACCTGTTGAATCTCAC
B2: Oscivirus (nucleic acid, listed as Oscivirus sp.)
DNA: CCTCGGTCCCTCTTTCCGTCGCCGCCCACGACGTTAAATGCGGTGTTGTGGTGCTTAGGTGCCACACCACTGCTATTTGGGTCCCCCTTTCCCCTATATATGTTTGTTTGTTTATTTCAATTTCTTGAGGATTGGCACCTCCTTATGCCAAATCTAAATCGTGGAGGATCCCAGGCTTTCTGGTCTTTAACAGAACTCCACGTCCAGGTCATAGAAACTGGTTGGTAGGCTGCCTGAGTAGTCCATTTGCTAGTAGTCCCTTGTGAACAGGGTGGCTCCCGTTTACTGCTGGTATTCCCGGTGTAGGTCGCCATGGTGGTAACACCATCCTGCATTGTGTGTGAACCAGTACCGCAAGGATAGCAAGGTATGAACACTTGTGGACGAAATGGTAAGTGATCAATTCACTTTCATGGCCGGAAGGTCACGTGGCAATCATGCCACCCAGGTACCCTCCTCTGGGAGGATCTGAGGGTGGGCTAAGCAGACCCTGCCATGTGGCTGAACTTTTCCCTTATTGTTTTACTTTGTAACATTTATAGTTGTGTTAGTGATTTGTGTGTTGTGCCCTTGTGAGCTATATCCAGTATAAGTTCGCAGCTAGAAGTTAATCCTTCGACATCGGCTGTATTGGAA
B3: Parechovirus A8 (nucleic acid, listed as Parechovirus sp.)
DNA: GGGCCTTATACCCCGACTTGCTGAGTTTCTCTAGGAGAGTCCCTTTCCCAGCCCTGAGGCGGCTGGATAATAAAGGCCTCACATGTAACAAACATCTAAGACAAAATAATTTGCCTTGCACCTGGTCCCCACTAGTTGAAGGCATCTAGCAATAAGATGAGTGGAACAAGGACGCTTAAAGTGCAATGATAGTTATCTTTTCTAACCCACTATTTATAGTGGGGTGGTGGATGGCGCACCATAATTCTAATAGTGAGATACCACGCTTGTGGACCTTATGCTCACACAGCCATCCTCTAGTAAGTTTGTGAGACGTCTGGTGACGTGTGGGAACTTACTGGAAACAATGCTTTGCCGTAAGGCTTTCATTAGCCAGCGGACCACCACCTGGTAACAGGTGCCTCTGGGGCCAAAAGCCAAGGTTTAATAGACCCTAATGGAATGGTTCAAACCTGGAGCATTGTGGAAAGTACTTAGTACCTGCTGATCTGGTAGTAATGCAAACACTAGTTGTACGGCCCACGAAGGATGCCCAGAAGGTACCCGTAGGTAACAAGTGACACTATGGATCTGATCTGGGGCCAACTACCTCTATCTTGGTGAGTTGGTTAAAAAACGTCTAGTGGGCCAAACCCAGGGGGGATCCCTGGTTTCCTTTTATTTTACTTTGTCAAT
B4: Parechovirus A2 (nucleic acid, listed as Parechovirus sp.)
DNA: GCCGTCGGGCCTTACACCCCGACTTGCTGAGTTTCTCTAGGAGAGTCCCTTTCCCAGCCAGAGGTGGCTGGTCAAACAATACCAAACGTAACTAAACATCTAAGATAACATAGCCCTATGCCTGGTCTCCACCAGTTGAAGGCATCTTGCAATAAAATGGGTGGATTAAGACGCTTAAAGCATGGAGTCAATTATCTTTTCTAACTAGTGATCTTCACTGGGTGGCAGATGGCGTGCCATAACTCTATTAGTGGGATACCACGCTCGTGGATCTTATGCCCACACAGCCATCCTCTAGTAAGTTTGCAAGGTGTCTGATGAGGCGTGGGAACTTATTGGAAATAATTACTTGCTGCGAAGCATCCTACTGCCAGCGGATCAACACCTGGTAACAGGTGCCCCTGGGGCCAAAAGCCACGGTTTAACAGACCCTTTAGGATTGGTTAAAACCTGAGTAATTATGGAAGATACTTAGTACCTACCAACTTGGTAACAGTGCAAACACTAGTTGTAAGGCCCACGAAGGATGCCCAGAAGGTACCCGCAGGTAACAAGAGACACTGTGGATCTGATCTGGGGCCACCTACCTCTATCCTGGTGAGGTGGTTAAAAAACGTCTAGTGGGCCAAACCCAGGGGGGATCCCTGGTTTCCTTATTTTAGTGTAAATGTCATT
B5: Potamipivirus A (nucleic acid)
DNA: CACATGGAAAGCTTTTCGCTTCCATGTTTACGCACACACTCTCTTTGACACCCTGTTGTATGGTGTTAAACTACAACATTTGTCTGTCTATAATCGTTTATTTTGTTTACCCTATATGTACCCAAGTATTTGATTGCTTGACTCACATAAGCATCGGTAACCCATACTGTTTTATGAGCTACTACCTCTGCTGTCTACATACATTTTATATGAATGGTTTGAGCTCTGCCTCAGGATCAAACATGGTAACATGTTCCTTTGGTCAGTTAGAATCTTATTGTATAATCTAAGGTGTCTATTAGTACGTAGAAAGTTGTAACACATATGGGGCCTGATAGCCGCTATCTCTGATGGATGTAAGGTAACCTTCTTTAGGTCTGATACATTCTGCACAGGATCCAATTTTCGGTGCCCTGTACGAGTGCACTCTTATGCACGAGGACGAGATATGCTACAACCCACTGCAAATTTAAACCCAAACTTTAACA
modifications: Potamipivirus A
B6: Parechovirus A3 (nucleic acid, listed as Parechovirus sp.)
DNA: AGAGTCCTTTTCCCAGCCAGAGGTGGCTGGTTAAATAATACCTACTGTAACAAAACATCTAAGATGTAACAACCACACACCTGGTCTCCACTGGCCGAAGGCAACTAGCAATAAGGCAGGTGGGTTCAGACGCTTAAAGTGTGTTGTACATATTCTTTTCTAACCTGTGTTTTACACAGGGTGGCAGATGGCGTGCCATAACTCTAACAGTGAGATACCACGCTTGTGGACCTTATGCTCACACAGCCATCCTCTAGTAAGTTTGTAAGATGTCTGATGACGTGTGGGAACCTGTTGGAGATAACAGTTTGCTGCAAAGCATCCCACTGCCAGCGGATCTACATCTGGTAACAGATGCCTCTGGGGCCAAAAGCCAAGGTTTAACAGACCCTTTGGGATTGGTTCAAACCTGAACTGTTATGGAAGACATTTAGTACCTGCTGATTTGGTAGTAATGCAAACACTAGTTGTAAGGCCCACGAAGGATGCCCAGAAGGTACCCGTAGGTAACAAGTGGCACTATGGATCTGATCTGGGGCCAGCTACCTCTATCTTGGTGAGTTGGTTAAAAAACGTCTAGTGGGCCAAACCCAGGGGGGATCCTGGTTTCTTTTTAATTTAAGTAATCACT
B7: Porcine Sapelovirus A2 (nucleic acid, listed as Sapelovirus sp.)
DNA: TTGAAATGGGTGTGGGGTACATGCGTATTACGGTACGCATATATTCCACACTCATTTCCCCCCCTCCACCCTTAAGGTGGTTGTATCCCCATACCTTACCCTCCCTTCTAAAACAGATGGACAAATGGATTTGAACTTATGGCAAGTGAATATGGTATGACTTTGGATACACTTTAACGGCAGTAGCGTGGCGAGCTATGGAAAAATCGCAATTGTCGATAGCCATGTTAGTGACGCGCTTCGGCGTGCTCCTTTGGTGATTCGGCGACTGGTTACAGGAGAGTAGGCAGTGAGCTATGGGCAAACCTCTACAGTATTACTTAGAGGGAATGTGCAATTGAGACTTGACGAGCGTCTCTTAGAGATGTGGCGCATGCTCTTGGCATTACCATAGTGAGCTTCCAGGTTGGGAAACCTGGACTGGGCCTATACTACCTGATAGGGTCGCGGCTGGCCGCCTGTAACTAGTATAGTCAGTTGAAACCCCCC
B8: Potamipivirus B (nucleic acid)
DNA: TTTCAACGTCGTGGCTGACGTTAAAAAGCCACAATTCCACTTACCTTTTACCTTTTATGTTTAATGTTTGTTAGTTTTGTGATCTTTAACAAATAGATCTAAATAATTTGTTGGTAACCAATCTCGGATGTTTCGGCTGCATTGTAGTTTATTTATTTCATTTTAGTTGTAGGTGGCCACTACGTCCTGGAATCATACATGGTAACATGTACCTCGGCGGTTATCCACTATTACGCTAATCTAAGAATATTTAAATGAAAATGTAAGTGTTACGGCTGACTTTGGGCCTGATAGTTAAATGCTCGCACTGACAGATAGTACCCTCCTTTAGGATCGATTCTGTTACATGGGATCCATTTTGGTGCCCCACTGATTCAACCTCTTTGTTGAAAAAGAGTTAGCATACTACAAATTTTCCAAACAAAAACCCTTTTTAATGACTACAACTTATGATTTTATGAATTTTACTGCTCTTGAAAAAGATATTTTGACATTGATCGCTGTACTGTTTCAGACATTCATTGCATCCATTTTTGTTGGCTACTCCTCACAAACTCAAAACTTTTCCACACGAGAAACCTTGTTTATTGAATTTTGCCTTTATATTTTGGAACTTGTTGTTGGATTTATTGTTTGCTTAATTATTGACCTCACACCTGTTTTAAACACTACAAT
modifications: Potamipivirus B
B9: Parechovirus A17 (nucleic acid, listed as Parechovirus sp.)
DNA: CTCTATTAGTGAGATACCACGCTTGTGGACCTTATGCTCACACAGCCATCCTCTAGTAAGTTTGTAAGACGTCTGGTGACGTGTGGGAACTTGTGGGAATCAATATTTTGCTTTAAAGCATCCATTAGCCAGCGGATAAAACACCTGGTAACAGGTGCCTCTGGGGCCAAAAGCCAAGGTTTAACAGACCCTAGTGGATTGGTTTCAAAACCTGAAATATTGTGGAACACACTCAGTACCTACTGATCTGGTAGTAATGCAAGCACTAGTTGTAAGGCCCACGAAGGATGCCCAGAAGGTACCTGTAGGGAACAAGAGACACTATAGATCTGATCTGGGGCTGGCTACCTCTATTTTGGTGAGTCAGTTAAAAAACGTCTAGTGGGCCAAACCCAGGGGGGACCCTGGTTTCCATTTATTTTACAAAGGCACT

The series relates to HEK293 cells. The format is cell-based, human. The conditions noted are these: luminescence from secreted Gluc in supernatant 24 hours after transfection of HEK293 cells; circular RNA encoding Gluc with the named IRES (UTR truncated to 675 nt).
Consider B1, for which the Expression turned out to be 1.15E+06.

As to B2, the Expression is 4.55E+07. B3 gave an Expression of 1.61E+07. Take B4: the Expression came to 1.80E+07. The value for B5 was 8.43E+05; that for B6 was 3.58E+06.

In turn, B7 returned an Expression of 4.34E+06. Molecule B8 had an Expression of 7.20E+05. Consider B9, for which the Expression stood at 1.20E+06.

For the origin of these results see patent US20230226096A1 (Orna Therapeutics, Inc., priority 2020, published 2023).
